{
  "source": "patent US20090011464A1",
  "about": "(published 2009)",
  "molecular_target": "T1, human α4β7 integrin (human, UniProt P13612 34-1032; P26010 20-798)",
  "T1 construct": "whole, on cells; also called α4β7 integrin on HuT 78 cells; α4β7 on RPMI 8866 cells",
  "experiment": "inhibition of adhesion of α4β7+ RPMI 8866 cells to plate-bound human MAdCAM-1-Ig chimera; antibody varied from 15.0 to 0.00075 µg/ml",
  "procedure": "Wells were then washed once with wash buffer (50 mM Tris HCl, 0.14 M NaCl, 1 mM MnC12, pH 7.2) using a microplate autowasher (Bio-Tek Instruments, Winooski, Vt.) and blocked for 1.5 hrs at 37° C. with 100 μL of 10% FBS diluted in PBS.\nBCECF (2′,7′-bis-(2-carboxyethyl)-5-(and 6)-carboxy fluorescein, acetoxymethyl ester; Molecular Probes, Inc., Eugene, Oreg.) was reconstituted to 50 μg/ml in DMSO and added to the cell suspension to a final dilution of 1:500. After incubating for 30 minutes at 37° C., cells were then washed in assay buffer (HBSS with 2% Fetal Bovine Serum, 25 mM HEPES, penicillin/streptomycin, pH 7.2), and 50,000 cells were added to each well of a V-bottom 96-well plate. […] The plate coated with MAdCAM-1 chimera was washed to remove blocking buffer, and these fluorescently labeled RPMI 8866 cells were then transferred to each well. The plate was placed on a platform shaker (New Brunswick Scientific Co., Inc., Edison, N.J.) at 40 RPM for 30 minutes at room temperature wrapped in aluminum foil. Unbound cells were removed by a single wash step and fluorescence subsequently measured (excite at 485 nm, read at 535 nm) with a Fluorescence Concentrator Analyzer (IDEXX Laboratories, Inc., Westbrook, Me.) before and after washing.",
  "data": [
    {"binder": "murine Act-1 monoclonal antibody (antibody, mouse IgG1, V domains shown, Mouse IgG1/kappa from the Act-1 hybridoma (ATCC PTA-3663); also called mAb Act-1; mouse Act-1 antibody) VH: QVQLQQPGAELVKPGTSVKLSCKGYGYTFTSYWMHWVKQRPGQGLEWIGEIDPSESNTNYNQKFKGKATLTVDISSSTAYMQLSSLTSEDSAVYYCARGGYDGWDYAIDYWGQGTSVTVSS VL: DVVVTQTPLSLPVSFGDQVSISCRSSQSLAKSYGNTYLSWYLHKPGQSPQLLIYGISNRFSGVPDRFSGSGSGTDFTLKISTIKPEDLGMYYCLQGTHQPYTFGGGTKLEIK", "values": [
      {"measurement": "IC50", "value": 1.8, "unit": "ng/mL"}
    ]}
  ]
}
